Blank lines part the entries; values can stand above or below the binder they belong to.
How the values were obtained:
Assay in all cases: two-hybrid library CCmax;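 further: natural log of median RNA to DNA barcode read ratio; higher means stronger binding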
[1] = molecular target: T1, 4H3921-AA; details: mean of both orientations
T1 chain: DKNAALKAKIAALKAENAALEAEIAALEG

[2] = molecular target: T2, 4H3112-AA; details: mean of both orientations
T2 chain: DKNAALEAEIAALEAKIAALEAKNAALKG

[3] = molecular target: T3, 4H429-AA; details: mean of both orientations
T3 chain: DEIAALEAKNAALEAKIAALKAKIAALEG

[4] = molecular target: T4, 4H906-AA; details: mean of both orientations
T4 chain: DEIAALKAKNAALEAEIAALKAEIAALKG

[5] = molecular target: T5, 4H993-AA; details: mean of both orientations
T5 chain: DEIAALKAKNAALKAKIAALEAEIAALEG

[6] = molecular target: T6, 4H717-AA; details: mean of both orientations
T6 chain: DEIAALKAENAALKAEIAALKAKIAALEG

[7] = molecular target: T7, 4H3627-AA; details: mean of both orientations
T7 chain: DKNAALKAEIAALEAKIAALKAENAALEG

[8] = molecular target: T8, 4H794-AA
T8 chain: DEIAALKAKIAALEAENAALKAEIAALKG

[9] = molecular target: T9, 4H3844-AA; details: mean of both orientations
T9 chain: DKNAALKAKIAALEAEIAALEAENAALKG

[10] = molecular target: T10, 4H3343-AA; details: mean of both orientations
T10 chain: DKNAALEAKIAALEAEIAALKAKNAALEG

[11] = molecular target: T11, 4H3655-AA; details: mean of both orientations
T11 chain: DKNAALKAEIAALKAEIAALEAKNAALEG

[12] = molecular target: T12, 4H3606-AA; details: mean of both orientations
T12 chain: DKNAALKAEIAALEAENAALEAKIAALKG

[13] = molecular target: T13, 4H48-AA; details: mean of both orientations
T13 chain: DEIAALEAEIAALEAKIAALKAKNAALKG

[14] = molecular target: T14, 4H3427-AA; details: mean of both orientations
T14 chain: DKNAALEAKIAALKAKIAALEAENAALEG

[15] = molecular target: T15, 4H566-AA; details: mean of both orientations
T15 chain: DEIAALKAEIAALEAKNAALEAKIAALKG

[16] = molecular target: T16, 4H454-AA; details: mean of both orientations
T16 chain: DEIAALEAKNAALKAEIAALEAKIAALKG

[17] = molecular target: T17, 4H342-AA; details: mean of both orientations
T17 chain: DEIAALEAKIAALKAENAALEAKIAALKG

[18] = molecular target: T18, 4H335-AA; details: mean of both orientations
T18 chain: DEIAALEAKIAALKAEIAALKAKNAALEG

[19] = molecular target: T19, 4H881-AA; details: mean of both orientations
T19 chain: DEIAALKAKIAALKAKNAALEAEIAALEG

[20] = molecular target: T20, 4H605-AA; details: mean of both orientations
T20 chain: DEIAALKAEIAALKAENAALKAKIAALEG

[21] = molecular target: T21, 4H317-AA; details: mean of both orientations
T21 chain: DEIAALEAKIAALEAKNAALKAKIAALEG

[22] = molecular target: T22, 4H2949-AA
T22 chain: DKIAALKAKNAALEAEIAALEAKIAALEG

[23] = molecular target: T23, 4H678-AA; details: mean of both orientations
T23 chain: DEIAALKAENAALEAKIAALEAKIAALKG

[24] = molecular target: T24, 4H780-AA; details: mean of both orientations
T24 chain: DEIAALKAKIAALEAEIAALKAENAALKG

[25] = molecular target: T25, 4H428-AA; details: mean of both orientations
T25 chain: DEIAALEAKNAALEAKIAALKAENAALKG

[26] = molecular target: T26, 4H3939-AA; details: mean of both orientations
T26 chain: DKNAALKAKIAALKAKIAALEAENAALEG

[27] = molecular target: T27, 4H675-AA; details: mean of both orientations
T27 chain: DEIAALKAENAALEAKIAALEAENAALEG

[28] = molecular target: T28, 4H656-AA; details: mean of both orientations
T28 chain: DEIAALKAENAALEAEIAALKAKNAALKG

[29] = molecular target: T29, 4H478-AA; details: mean of both orientations
T29 chain: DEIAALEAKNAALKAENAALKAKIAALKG

[30] = molecular target: T30, 4H3920-AA
T30 chain: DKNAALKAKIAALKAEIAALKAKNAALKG

[31] = molecular target: T31, 4H971-AA; details: mean of both orientations
T31 chain: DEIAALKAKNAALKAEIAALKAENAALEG

[32] = molecular target: T32, 4H497-AA; details: mean of both orientations
T32 chain: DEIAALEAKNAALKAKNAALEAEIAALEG

[33] = molecular target: T33, 4H63-AA; details: mean of both orientations
T33 chain: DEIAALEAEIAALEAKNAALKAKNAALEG

[34] = molecular target: T34, 4H3974-AA
T34 chain: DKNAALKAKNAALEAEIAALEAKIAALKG

[35] = molecular target: T35, 4H432-AA; details: mean of both orientations
T35 chain: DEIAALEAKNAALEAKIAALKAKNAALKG

[36] = molecular target: T36, 4H446-AA; details: mean of both orientations
T36 chain: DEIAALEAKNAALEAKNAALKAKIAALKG

[37] = molecular target: T37, 4H3697-AA; details: mean of both orientations
T37 chain: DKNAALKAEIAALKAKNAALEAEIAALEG

[38] = molecular target: T38, 4H3718-AA; details: mean of both orientations
T38 chain: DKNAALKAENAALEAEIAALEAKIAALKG

[39] = molecular target: T39, 4H982-AA; details: mean of both orientations
T39 chain: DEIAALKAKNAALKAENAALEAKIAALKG

[40] = molecular target: T40, 4H384-AA; details: mean of both orientations
T40 chain: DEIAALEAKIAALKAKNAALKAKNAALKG

[41] = molecular target: T41, 4H3865-AA; details: mean of both orientations
T41 chain: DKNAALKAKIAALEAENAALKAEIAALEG

[42] = molecular target: T42, 4H697-AA; details: mean of both orientations
T42 chain: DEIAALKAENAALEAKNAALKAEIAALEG

[43] = molecular target: T43, 4H3631-AA
T43 chain: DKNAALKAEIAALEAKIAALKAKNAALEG

- interaction score [1]: 0.152
- interaction score [2]: -0.654
- interaction score [3]: 1.91
- interaction score [4]: -1.01
- interaction score [5]: 1.65
- interaction score [6]: -0.385
- interaction score [7]: -1.38
- interaction score [8]: -1
- interaction score [9]: -1.79
- interaction score [10]: -1.48
- interaction score [11]: -1.3
- interaction score [12]: -0.156
- interaction score [13]: -0.564
- interaction score [14]: -0.95
- interaction score [15]: -0.649
- interaction score [16]: 1.98
- interaction score [17]: 0.399
- interaction score [18]: -0.276
- interaction score [19]: 1.71
- interaction score [20]: -0.239
- interaction score [21]: 1.47
- interaction score [22]: 1.3
- interaction score [23]: 1.69
- interaction score [24]: -1.49
Binder: DKIAALKAKNAALEAEIAALEAKIAALEG [4H2949-AA]

- interaction score [25]: -0.945
- interaction score [26]: -0.87
- interaction score [27]: -1.22
- interaction score [28]: -1.01
- interaction score [29]: -1.71
- interaction score [30]: -1.57
- interaction score [31]: -1.64
- interaction score [32]: -1.9
Binder: DKNAALKAKIAALKAEIAALKAKNAALKG [4H3920-AA]

- interaction score [33]: -0.932
- interaction score [34]: -0.00837
- interaction score [35]: -0.198
- interaction score [36]: -0.724
Binder: DKNAALKAKNAALEAEIAALEAKIAALKG [4H3974-AA]

- interaction score [37]: -1.62
- interaction score [38]: 0.0628
- interaction score [39]: -1.91
- interaction score [40]: -1.07
- interaction score [41]: -1.53
- interaction score [42]: -1.8
- interaction score [43]: 0.402
Binder: DKNAALKAEIAALEAKIAALKAKNAALEG [4H3631-AA]

Source: PMC10397247
